The text below walks through data of US20240417463A1 (ADAGENE PTE, published 2024).

Experiment [1] concerns the target human CD47 on the cell surface (CEM, Raji and other human tumor cells, human RBCs) (human) (UniProt Q08722). In words: flow cytometry, human RBCs, batch 2. A general note: Flow cytometry measures light scatter and fluorescence of single cells or particles in a stream.
For experiment [2] the target is unchanged.
For experiment [3], the target named is T1, human CD47 on the cell surface (CEM, Raji and other human tumor cells, human RBCs) (human, UniProt Q08722 19-323).
T1 construct: whole, on cells; also called CD47 on tumor cell surface; CD47 on RBCs
In words: flow cytometry, CEM cells, batch 2; CEM tumor cells, batch 2.

The target in experiment [4] is T1, human CD47 on the cell surface (CEM, …). Nature of the experiment: flow cytometry, Raji cells, batch 3; Raji tumor cells, batch 3.
For experiment [5] the target is unchanged. In words: cell-based or functional assay.
Experiment [6] has as its target T2, hCD47-ECD/Fc protein (Sinobiological) (human, UniProt Q08722 19-139, biotinylated in the Octet assay, sites not stated).
T2 construct: extracellular domain; Bought protein; also called human CD47-Fc antigen; recombinant hCD47-ECD/Fc; not shown: Fc part of the bought fusion protein
Nature of the experiment: BLI (Octet RED96), biotin-hCD47-ECD/Fc on SA sensors, 1:1 model.

Experiment [7] has as its target T2, hCD47-ECD/Fc protein (Sinobiological). In words: BLI (Octet RED96), biotin-hCD47-ECD/Fc on SA sensors, 1:1 model;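 note: test antibodies as analytes, 300 s association then 300 s dissociation in running buffer, with benchmark reference antibodies run as controls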; ForteBio BLI affinity ranking, not ELISA. A general note: In BLI a coated tip is dipped into the sample, and binding shifts an interference pattern.

For the molecule “Isotype control (RBC binding, Table 15) (antibody)”, the max MFI in experiment [1] was found to be 105 MFI.

In experiment [2], Neg ctrl (antibody) came in with a % of events double-positive for CFSE-Raji and BMQC-Jurkat (cell clustering), antibody at 100 nM of 10.3%.

B1: TAC2407 (antibody, V domains shown)
VH: EVQLVESGGGLVKPGGSLRLSCAASGLTFERAWMNWVRQAPGKGLEWVGRIKRKTDGETTDYAAPVKGRFSISRDDSKNTLYLQMNSLKTEDTAVYYCAGSNRAFDIWGQGTMVTVSS
VL: DIVMTQSPDSLAVSLGERATINCKSSQSVLYAGNNRNYLAWYQQKPGQPPKLLINQASTRASGVPDRFSGSGSGTEFTLIISSLQAEDVAIYYCQQYYTPPLAFGGGTKLEIK
notes: Benchmark anti-CD47 antibody; also called 13H3; TJC4
A word on the EC50: it is the midpoint of the concentration-response curve. Higher therefore signals lower potency in that assay. One may read the Kd as a measure of binding affinity in units of concentration. The low end stands for higher affinity, the high end for lower affinity. As a reminder, the koff is the rate constant with which the complex falls apart. Low values mean slow dissociation, high ones fast dissociation. What is called kon is the second-order rate constant of association. In experiment [3], B1 gave an EC50 of 1.18 nM. In addition, a half-maximal response in experiment [4] (EC50) required 1.97 nM. Moreover, in experiment [5], the “EC50 of macrophage phagocytosis of CEM cells, donor A” value came to 4.4 nM; the “EC50 of macrophage phagocytosis of CEM cells, donor B” value was found to be 0.83 nM; the “Max. Phagocytosis (%), donor A” value worked out at 29.7%; the “Max. Phagocytosis (%), donor B” value stood at 29%. In experiment [6], this molecule gave a Kd of 1.4 nM, a koff of 0.000729 s⁻¹ and a kon of 520000 M⁻¹ s⁻¹.

B2: TY25032 (antibody, V domains shown)
VH: EVQLVESGGGLVQPGGSLRLSCAASGFTFTSYGIHWVRQAPGKGLEWVSAISGSGGSTYYADSVKGRFTISRDNSKNTLYLQLNSLRAEDTAVYYCARSGHAYDFDYWGQGTLVTVSS
VL: DIQLTQSPSSLSASVGDRVTITCRASQSVDFYGISFLDWYQQKPGKAPKLLIYAASTLQSGVPSRFSGSGSGTDFTLTISSLQPEDFATYYCQQGGTSPWTFAQGTKVEIKR
As for B2, in experiment [7], the affinity, expressed as Kd, was 2.73 nM; the koff turned out to be 0.000806 s⁻¹; the kon was found to be 295000 M⁻¹ s⁻¹.
